B1: Phytosulfokine receptor 1 (Daucus carota), Q8LPB4 (parent)
chain: MGVLRVYVILILVGFCVQIVVVNSQNLTCNSNDLKALEGFMRGLESSIDGWKWNESSSFSSNCCDWVGISCKSSVSLGLDDVNESGRVVELELGRRKLSGKLSESVAKLDQLKVLNLTHNSLSGSIAASLLNLSNLEVLDLSSNDFSGLFPSLINLPSLRVLNVYENSFHGLIPASLCNNLPRIREIDLAMNYFDGSIPVGIGNCSSVEYLGLASNNLSGSIPQELFQLSNLSVLALQNNRLSGALSSKLGKLSNLGRLDISSNKFSGKIPDVFLELNKLWYFSAQSNLFNGEMPRSLSNSRSISLLSLRNNTLSGQIYLNCSAMTNLTSLDLASNSFSGSIPSNLPNCLRLKTINFAKIKFIAQIPESFKNFQSLTSLSFSNSSIQNISSALEILQHCQNLKTLVLTLNFQKEELPSVPSLQFKNLKVLIIASCQLRGTVPQWLSNSPSLQLLDLSWNQLSGTIPPWLGSLNSLFYLDLSNNTFIGEIPHSLTSLQSLVSKENAVEEPSPDFPFFKKKNTNAGGLQYNQPSSFPPMIDLSYNSLNGSIWPEFGDLRQLHVLNLKNNNLSGNIPANLSGMTSLEVLDLSHNNLSGNIPPSLVKLSFLSTFSVAYNKLSGPIPTGVQFQTFPNSSFEGNQGLCGEHASPCHITDQSPHGSAVKSKKNIRKIVAVAVGTGLGTVFLLTVTLLIILRTTSRGEVDPEKKADADEIELGSRSVVLFHNKDSNNELSLDDILKSTSSFNQANIIGCGGFGLVYKATLPDGTKVAIKRLSGDTGQMDREFQAEVETLSRAQHPNLVHLLGYCNYKNDKLLIYSYMDNGSLDYWLHEKVDGPPSLDWKTRLRIARGAAEGLAYLHQSCEPHILHRDIKSSNILLSDTFVAHLADFGLARLILPYDTHVTTDLVGTLGYIPPEYGQASVATYKGDVYSFGVVLLELLTGRRPMDVCKPRGSRDLISWVLQMKTEKRESEIFDPFIYDKDHAEEMLLVLEIACRCLGENPKTRPTTQQLVSWLENIDVSS
partner: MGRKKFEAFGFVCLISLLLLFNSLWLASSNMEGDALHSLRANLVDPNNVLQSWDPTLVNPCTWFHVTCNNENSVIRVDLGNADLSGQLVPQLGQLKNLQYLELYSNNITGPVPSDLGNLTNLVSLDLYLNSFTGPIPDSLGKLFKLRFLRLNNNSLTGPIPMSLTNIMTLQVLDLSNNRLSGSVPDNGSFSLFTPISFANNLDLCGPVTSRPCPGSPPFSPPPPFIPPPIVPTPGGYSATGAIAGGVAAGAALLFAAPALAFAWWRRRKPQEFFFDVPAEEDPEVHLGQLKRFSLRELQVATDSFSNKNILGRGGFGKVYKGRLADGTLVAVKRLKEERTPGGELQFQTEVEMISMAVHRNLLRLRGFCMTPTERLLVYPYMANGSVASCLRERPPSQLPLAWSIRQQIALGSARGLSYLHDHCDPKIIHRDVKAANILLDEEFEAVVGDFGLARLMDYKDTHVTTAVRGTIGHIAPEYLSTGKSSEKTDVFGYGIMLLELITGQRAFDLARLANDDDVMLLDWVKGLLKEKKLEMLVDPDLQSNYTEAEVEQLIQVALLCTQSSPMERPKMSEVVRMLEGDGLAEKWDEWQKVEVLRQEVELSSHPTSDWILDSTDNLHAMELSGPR
B2: Somatic embryogenesis receptor kinase 2 (Arabidopsis thaliana (Mouse-ear cress)), Q9XIC7 (parent)
chain: B1 partner
partner: B1 chain

Variants of: B1
Settings: with serk2_arath SERK2, Q9XIC7

| Variant | effect of a mutation on the interaction |
| --- | --- |
| F606D | disrupting interaction strength |
| T629Y | disrupting interaction strength |
| S608Y | disrupting interaction strength |

Variants of: B2
Settings: with pskr1_dauca PSKR

| Variant | effect of a mutation on the interaction |
| --- | --- |
| T62Y | disrupting interaction strength |

Reference: IntAct's records for PubMed 26308901
